In this assay the target is T1, VEGF 항원 단백질 (VEGF-His) (UniProt P15692-4 27-191, limits assumed).
T1 construct: Expressed from pN293-VEGF in HEK293F cells, purified on Ni-NTA and by gel filtration; also called 혈관 내피세포 성장인자
T1 sequence: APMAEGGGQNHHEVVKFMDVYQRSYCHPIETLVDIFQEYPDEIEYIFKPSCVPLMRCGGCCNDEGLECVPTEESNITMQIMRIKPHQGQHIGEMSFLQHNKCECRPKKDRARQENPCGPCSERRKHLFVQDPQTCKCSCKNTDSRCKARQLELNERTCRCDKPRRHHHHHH
Description: ELISA on plate-coated VEGF-His (100 ng/well), IgG diluted 1/2 from 50 nM, anti-human Fc-HRP, fit in GraphPad Prism. (An ELISA detects its analyte on a solid surface through an enzyme-linked reagent.)

B1: 항-VEGF 단일클론 인간항체 3H1 (IgG형) (antibody, V domains shown)
VH: QVQLVESGGGLVKPGGSLRLSCAASGFIFSRYGMNWVRQAPGKGLEWVSSISGSSNYRYYADSVKGRFTISRDNAKNSLYLQMNSLRAEDTAVYYCARDASWGLIQGLDSWGQGTLVTVSS
VL: DIQMTQSPSSLSASVGDRVTITCRASQSISSYLNWYQQEPGKAPKLLIYDASSLQSGVPSRFSGGGSGTDFTLTISSLQPEDFAAYYCQQSYSTPYTFGQGTKVDIK
Regarding B1, the affinity, expressed as Kd, was 0.06 nM. In other words, the picomolar range.

B2: 항-VEGF 단일클론 인간항체 7D2 (IgG형) (antibody, V domains shown)
VH: QMQLVQSGGGLVQPGGSLRLSCAASGFTFSSFEMNWVRQAPGKGLEWLSYISNSGSTIYYADSVKGRFTISRDNAKNSLYLQMNSLRAEDTAVYYCARDSRYYGIHGMDVWGQGTTITVSS
VL: DIQMTQSPSSLSASVGDRVTITCRASQTISTYLNWYQQKPGKAPKLLIYAASSLQSGVPSRFSGSGSGTDFTLTISSLQPEDFATYYCQQSSSTPRTFGQGTRLEIK
In the case of B2, binding was characterised by a dissociation constant (Kd) of 0.05 nM.

B3: 항-VEGF 단일클론 인간항체 4C4 (IgG형) (antibody, V domains shown)
VH: QVQLVQSGAEVKKPGSSVKVSCKASGGTFSSSAFSWVRQAPGHGLEWMGRIIPMFDMTDYAQRFQGRLTIIADESSSTAYMELSSLRSEDTAVYYCARYKSGSYGMDVWGQGTTVTVSS
VL: NFMLTQPASVSGSPGQSITISCTGSSSDVGGYNYVSWYQQHPGKAPQLIIYDVTKRPSGVSNRFSGSKSGNSASLTISGLQAEDEADYYCSSYSSSTFYVFGTGTKVTVL
B3: binding was characterised by a dissociation constant (Kd) of 0.025 nM.

These data come from patent publication KR20180095349A (dated 2018).
